What was measured:
Experiment in all cases: ELISA, biotin-peptide on neutravidin plate, antibody 1 ug/ml
[1] = target: peptide … (SEQ ID NO:81), N-terminally biotinylated (human)
[2] = target: peptide … (SEQ ID NO:86), N-terminally biotinylated (human)
[3] = target: peptide … (SEQ ID NO:76), N-terminally biotinylated (human)
[4] = target: T1, peptide … (SEQ ID NO:74), N-terminally biotinylated (human)
T1 sequence (peptide, N-terminally biotinylated): EISQEVAGDVFPSY

[5] = target: peptide … (SEQ ID NO:78), N-terminally biotinylated (human)
[6] = target: T2, peptide … (SEQ ID NO:75), N-terminally biotinylated (human)
T2 sequence (peptide, N-terminally biotinylated): EISQEVRADVFPSY

[7] = target: peptide … (SEQ ID NO:82), N-terminally biotinylated (human)
[8] = target: peptide … (SEQ ID NO:83), N-terminally biotinylated (human)
[9] = target: peptide … (SEQ ID NO:84), N-terminally biotinylated (human)
[10] = target: peptide … (SEQ ID NO:85), N-terminally biotinylated (human)
[11] = target: T3, peptide … (SEQ ID NO:51), N-terminally biotinylated (human)
T3 sequence (peptide, N-terminally biotinylated): EISQEVRGDVFPSY

[12] = target: peptide … (SEQ ID NO:79), N-terminally biotinylated (human)
[13] = target: peptide … (SEQ ID NO:80), N-terminally biotinylated (human)
[14] = target: T4, peptide … (SEQ ID NO:77), N-terminally biotinylated (human)
T4 sequence (peptide, N-terminally biotinylated): EISQEVAADVFPSY

absorbance 450 nm minus 540 nm [1]: 0.27 absorbance | absorbance 450 nm minus 540 nm [2]: 0.34 absorbance | absorbance 450 nm minus 540 nm [3]: 0.24 absorbance | absorbance 450 nm minus 540 nm [4]: 0.24 absorbance | absorbance 450 nm minus 540 nm [5]: 0.28 absorbance | absorbance 450 nm minus 540 nm [6]: 0.22 absorbance | absorbance 450 nm minus 540 nm [7]: 0.24 absorbance | absorbance 450 nm minus 540 nm [8]: 0.24 absorbance | absorbance 450 nm minus 540 nm [9]: 0.29 absorbance | absorbance 450 nm minus 540 nm [10]: 0.41 absorbance | absorbance 450 nm minus 540 nm [11]: 0.28 absorbance | absorbance 450 nm minus 540 nm [12]: 0.28 absorbance | absorbance 450 nm minus 540 nm [13]: 0.31 absorbance | absorbance 450 nm minus 540 nm [14]: 0.24 absorbance
Substance: rabbit polyclonal antibody preparation raised against amino acids 56-190 of murine MFG-E8 (Santa Cruz sc-33546)

Source: patent WO2013139956A1 (dated 2013)
